The numbers were not newly measured in PMC8403128, which cites them from elsewhere.

Like-named read-outs stand apart in the source and are kept apart here. A value given as a limit tells only on which side of the number the result lay.

The term Kd denotes the concentration at which binding is half-saturated.

In series [1] the target is Low-density lipoprotein receptor-related protein 1 (Homo sapiens) (UniProt Q07954).
The target is the same in series [2]. The source holds these as a separate data set.

UniProt Q07954, sequence (Q07954 4441-4544): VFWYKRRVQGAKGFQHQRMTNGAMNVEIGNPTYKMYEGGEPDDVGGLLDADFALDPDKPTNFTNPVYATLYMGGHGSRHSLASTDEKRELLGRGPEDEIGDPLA

Take “Matrix metalloproteinase-1 (from UniProt P03956)”: the Kd in series [1] was more than 1000 nM.

Take “Matrix metalloproteinase-3 (from UniProt P08254)”: in series [2], the Kd was more than 1000 nM.
